Numbered stars: 1 amine (or outer) side, 2 acyl side, 3 side chain; on linkers, the order of the positions; unused ones are H or OH. Square brackets hold non-standard residues; d marks the D form. Side chains are listed from the residue outwards. Ends that are not written are not given here. * marks the point of attachment. C20 diacid = O=C(O)CCCCCCCCCCCCCCCCCCC(=O)*; γGlu = O=C(O)[C@H](CCC(=O)[*:2])N[*:1]; AEEA = NCCOCCOCC(=O)O; Aib = CC(C)(N)C(=O)O
Each binder was assayed against human GLP-1 receptor (hGLP1R) (human, UniProt P43220 24-463) (assay: cell-based or functional assay).

| Binder | pEC50 hGLPR1 |
| --- | --- |
| H[Aib]EGTFTSDVSELK([AEEA-AEEA-γGlu-C20 diacid])EFAASQRFLEHLV-NH2 [SEQ ID NO: 8] | 10.3 -log M |
| H[Aib]EGTFTSDVSRLK([AEEA-AEEA-γGlu-C20 diacid])E[Aib]AAAQRFLEHLV-NH2 [SEQ ID NO: 81] | 10.1 -log M |
| H[Aib]EGTFTSDVSRLK([AEEA-AEEA-γGlu-C20 diacid])ETAASQRFLEHLV-NH2 [SEQ ID NO: 71] | 10.2 -log M |
| H[Aib]EGTFTSDVSTLK([AEEA-AEEA-γGlu-C20 diacid])ETAATQRFLEHLV-NH2 (not fully specified) [SEQ ID NO: 93] | 11 -log M |
| H[Aib]EGTFTSDVSTLK([AEEA-AEEA-γGlu-C20 diacid])ELAATQRFLEHLV-NH2 [SEQ ID NO: 67] | 10.3 -log M |
| H[Aib]EGTFTSDVSRLK([AEEA-AEEA-γGlu-C20 diacid])EEAATQRFLEHLV-NH2 [SEQ ID NO: 65] | 11.5 -log M |
| H[Aib]EGTFTSDVSTLK([AEEA-AEEA-γGlu-C20 diacid])E[Aib]AAQQRFLEHLV-NH2 [SEQ ID NO: 88] | 11.4 -log M |
| H[Aib]EGTFTSDVSRLK([AEEA-AEEA-γGlu-C20 diacid])EFAA[Aib]QRFLEHLV-NH2 [SEQ ID NO: 68] | 10 -log M |
| H[Aib]EGTFTSDVSFLK([AEEA-AEEA-γGlu-C20 diacid])E[Aib]AASQRFLEHLV-NH2 [SEQ ID NO: 74] | 10.2 -log M |
| H[Aib]EGTFTSDVSFLK([AEEA-AEEA-γGlu-C20 diacid])ETAATQRFLEHLV-NH2 [SEQ ID NO: 70] | 10.7 -log M |
| H[Aib]EGTFTSDVSYLKE[Aib]AAQQRFLEHLV-NH2 (not fully specified (residue 14)) [SEQ ID NO: 94] | 11 -log M |
| H[Aib]EGTFTSDVSVLK([AEEA-AEEA-γGlu-C20 diacid])EFAASQRFLEHLV-NH2 [SEQ ID NO: 92] | 10.1 -log M |
| H[Aib]EGTFTSDVSTLK([AEEA-AEEA-γGlu-C20 diacid])ELAA[Aib]QRFLEHLV-NH2 [SEQ ID NO: 79] | 10 -log M |
| H[Aib]EGTFTSDVSYLK([AEEA-AEEA-γGlu-C20 diacid])EEAASQRFLEHLV-NH2 [SEQ ID NO: 75] | 10.6 -log M |
| H[Aib]EGTFTSDVSELK([AEEA-AEEA-γGlu-C20 diacid])ELAATQRFLEHLV-NH2 [SEQ ID NO: 80] | 10.7 -log M |
| H[Aib]EGTFTSDVSYLK([AEEA-AEEA-γGlu-C20 diacid])ELAAAQRFLEHLV-NH2 [SEQ ID NO: 86] | 9.7 -log M |
| H[Aib]EGTFTSDVSFLK([AEEA-AEEA-γGlu-C20 diacid])EFAAAQRFLEHLV-NH2 [SEQ ID NO: 84] | 10.1 -log M |
| H[Aib]EGTFTSDVSYLK([AEEA-AEEA-γGlu-C20 diacid])EFAASQRFLEHLV-NH2 [SEQ ID NO: 66] | 10.4 -log M |
| H[Aib]EGTFTSDVSFLK([AEEA-AEEA-γGlu-C20 diacid])EEAAQQRFLEHLV-NH2 [SEQ ID NO: 83] | 10.5 -log M |

| Binder | pEC50 hGLPR1 |
| --- | --- |
| H[Aib]EGTFTSDVSVLK([AEEA-AEEA-γGlu-C20 diacid])ETAAAQRFLEHLV-NH2 [SEQ ID NO: 62] | 10 -log M |
| H[Aib]EGTFTSDVSYLK([AEEA-AEEA-γGlu-C20 diacid])ETAAEQRFLEHLV-NH2 [SEQ ID NO: 69] | 10.8 -log M |
| H[Aib]EGTFTSDVSTLK([AEEA-AEEA-γGlu-C20 diacid])ELAAEQRFLEHLV-NH2 [SEQ ID NO: 78] | 10.3 -log M |
| H[Aib]EGTFTSDVSRLK([AEEA-AEEA-γGlu-C20 diacid])EFAAEQRFLEHLV-NH2 [SEQ ID NO: 72] | 10 -log M |
| H[Aib]EGTFTSDVSTLK([AEEA-AEEA-γGlu-C20 diacid])EEAA[Aib]QRFLEHLV-NH2 [SEQ ID NO: 77] | 10.7 -log M |
| H[Aib]EGTFTSDVSVLK([AEEA-AEEA-γGlu-C20 diacid])EEAAQQRFLEHLV-NH2 [SEQ ID NO: 90] | 10.5 -log M |
| H[Aib]EGTFTSDVSTLK([AEEA-AEEA-γGlu-C20 diacid])EFAAEQRFLEHLV-NH2 [SEQ ID NO: 89] | 10.7 -log M |
| H[Aib]EGTFTSDVSRLK([AEEA-AEEA-γGlu-C20 diacid])ETAA[Aib]QRFLEHLV-NH2 [SEQ ID NO: 85] | 9.9 -log M |
| H[Aib]EGTFTSDVSYLK([AEEA-AEEA-γGlu-C20 diacid])EFAAQQRFLEHLV-NH2 [SEQ ID NO: 76] | 10.1 -log M |
| H[Aib]EGTFTSDVSFLK([AEEA-AEEA-γGlu-C20 diacid])EFAASQRFLEHLV-NH2 [SEQ ID NO: 91] | 9.5 -log M |
| H[Aib]EGTFTSDVSRLK([AEEA-AEEA-γGlu-C20 diacid])EEAAQQRFLEHLV-NH2 [SEQ ID NO: 73] | 11.2 -log M |
| H[Aib]EGTFTSDVSRLK([AEEA-AEEA-γGlu-C20 diacid])ELAAAQRFLEHLV-NH2 [SEQ ID NO: 9] | 10.2 -log M |
| H[Aib]EGTFTSDVSFLK([AEEA-AEEA-γGlu-C20 diacid])EEAAAQRFLEHLV-NH2 [SEQ ID NO: 63] | 10.3 -log M |
| H[Aib]EGTFTSDVSRLK([AEEA-AEEA-γGlu-C20 diacid])E[Aib]AA[Aib]QRFLEHLV-NH2 [SEQ ID NO: 64] | 10.2 -log M |
| H[Aib]EGTFTSDVSELK([AEEA-AEEA-γGlu-C20 diacid])E[Aib]AATQRFLEHLV-NH2 [SEQ ID NO: 82] | 11 -log M |
| H[Aib]EGTFTSDVSYLKEEAAEQRFLEHLV-NH2 (not fully specified (residue 14)) [SEQ ID NO: 95] | 10.7 -log M |
| H[Aib]EGTFTSDVSELK([AEEA-AEEA-γGlu-C20 diacid])E[Aib]AA[Aib]QRFLEHLV-NH2 [SEQ ID NO: 7] | 10.2 -log M |
| H[Aib]EGTFTSDVSELK([AEEA-AEEA-γGlu-C20 diacid])EEAASQRFLEHLV-NH2 [SEQ ID NO: 87] | 10.4 -log M |

Each binder was assayed against human secretin receptor (hSCTR) (human, UniProt P47872 23-440) (assay: cell-based or functional assay).
Sequence of human secretin receptor (hSCTR) (P47872 23-440): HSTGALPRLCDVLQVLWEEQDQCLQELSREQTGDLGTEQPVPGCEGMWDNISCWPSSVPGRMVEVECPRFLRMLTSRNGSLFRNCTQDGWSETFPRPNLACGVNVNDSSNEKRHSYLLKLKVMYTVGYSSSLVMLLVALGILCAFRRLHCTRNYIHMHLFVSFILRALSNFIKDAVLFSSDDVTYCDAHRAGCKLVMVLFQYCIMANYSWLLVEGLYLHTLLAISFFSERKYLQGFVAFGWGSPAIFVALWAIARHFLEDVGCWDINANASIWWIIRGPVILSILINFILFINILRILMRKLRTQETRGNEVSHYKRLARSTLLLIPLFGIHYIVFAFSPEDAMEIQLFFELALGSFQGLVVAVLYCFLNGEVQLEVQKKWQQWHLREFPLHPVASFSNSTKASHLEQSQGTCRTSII

| Binder | pEC50 hSCTR |
| --- | --- |
| H[Aib]EGTFTSDVSELK([AEEA-AEEA-γGlu-C20 diacid])EFAASQRFLEHLV-NH2 [SEQ ID NO: 8] | 5.8 -log M |
| H[Aib]EGTFTSDVSRLK([AEEA-AEEA-γGlu-C20 diacid])E[Aib]AAAQRFLEHLV-NH2 [SEQ ID NO: 81] | 7.1 -log M |
| H[Aib]EGTFTSDVSRLK([AEEA-AEEA-γGlu-C20 diacid])ETAASQRFLEHLV-NH2 [SEQ ID NO: 71] | 6 -log M |
| H[Aib]EGTFTSDVSTLK([AEEA-AEEA-γGlu-C20 diacid])ETAATQRFLEHLV-NH2 (not fully specified) [SEQ ID NO: 93] | 6.5 -log M |
| H[Aib]EGTFTSDVSTLK([AEEA-AEEA-γGlu-C20 diacid])ELAATQRFLEHLV-NH2 [SEQ ID NO: 67] | 6.4 -log M |
| H[Aib]EGTFTSDVSRLK([AEEA-AEEA-γGlu-C20 diacid])EEAATQRFLEHLV-NH2 [SEQ ID NO: 65] | 7.6 -log M |
| H[Aib]EGTFTSDVSTLK([AEEA-AEEA-γGlu-C20 diacid])E[Aib]AAQQRFLEHLV-NH2 [SEQ ID NO: 88] | 6.8 -log M |
| H[Aib]EGTFTSDVSRLK([AEEA-AEEA-γGlu-C20 diacid])EFAA[Aib]QRFLEHLV-NH2 [SEQ ID NO: 68] | 5.9 -log M |
| H[Aib]EGTFTSDVSFLK([AEEA-AEEA-γGlu-C20 diacid])E[Aib]AASQRFLEHLV-NH2 [SEQ ID NO: 74] | 4.9 -log M |
| H[Aib]EGTFTSDVSFLK([AEEA-AEEA-γGlu-C20 diacid])ETAATQRFLEHLV-NH2 [SEQ ID NO: 70] | 7 -log M |
| H[Aib]EGTFTSDVSYLKE[Aib]AAQQRFLEHLV-NH2 (not fully specified (residue 14)) [SEQ ID NO: 94] | 6 -log M |
| H[Aib]EGTFTSDVSVLK([AEEA-AEEA-γGlu-C20 diacid])EFAASQRFLEHLV-NH2 [SEQ ID NO: 92] | 5.8 -log M |
| H[Aib]EGTFTSDVSTLK([AEEA-AEEA-γGlu-C20 diacid])ELAA[Aib]QRFLEHLV-NH2 [SEQ ID NO: 79] | 5.5 -log M |
| H[Aib]EGTFTSDVSYLK([AEEA-AEEA-γGlu-C20 diacid])EEAASQRFLEHLV-NH2 [SEQ ID NO: 75] | 5.5 -log M |
| H[Aib]EGTFTSDVSELK([AEEA-AEEA-γGlu-C20 diacid])ELAATQRFLEHLV-NH2 [SEQ ID NO: 80] | 6.1 -log M |
| H[Aib]EGTFTSDVSYLK([AEEA-AEEA-γGlu-C20 diacid])ELAAAQRFLEHLV-NH2 [SEQ ID NO: 86] | 5.4 -log M |
| H[Aib]EGTFTSDVSFLK([AEEA-AEEA-γGlu-C20 diacid])EFAAAQRFLEHLV-NH2 [SEQ ID NO: 84] | 5.4 -log M |
| H[Aib]EGTFTSDVSYLK([AEEA-AEEA-γGlu-C20 diacid])EFAASQRFLEHLV-NH2 [SEQ ID NO: 66] | 5.5 -log M |
| H[Aib]EGTFTSDVSFLK([AEEA-AEEA-γGlu-C20 diacid])EEAAQQRFLEHLV-NH2 [SEQ ID NO: 83] | 5.8 -log M |

| Binder | pEC50 hSCTR |
| --- | --- |
| H[Aib]EGTFTSDVSVLK([AEEA-AEEA-γGlu-C20 diacid])ETAAAQRFLEHLV-NH2 [SEQ ID NO: 62] | 5.7 -log M |
| H[Aib]EGTFTSDVSYLK([AEEA-AEEA-γGlu-C20 diacid])ETAAEQRFLEHLV-NH2 [SEQ ID NO: 69] | 4.8 -log M |
| H[Aib]EGTFTSDVSTLK([AEEA-AEEA-γGlu-C20 diacid])ELAAEQRFLEHLV-NH2 [SEQ ID NO: 78] | 5.4 -log M |
| H[Aib]EGTFTSDVSRLK([AEEA-AEEA-γGlu-C20 diacid])EFAAEQRFLEHLV-NH2 [SEQ ID NO: 72] | 6 -log M |
| H[Aib]EGTFTSDVSTLK([AEEA-AEEA-γGlu-C20 diacid])EEAA[Aib]QRFLEHLV-NH2 [SEQ ID NO: 77] | 5.8 -log M |
| H[Aib]EGTFTSDVSVLK([AEEA-AEEA-γGlu-C20 diacid])EEAAQQRFLEHLV-NH2 [SEQ ID NO: 90] | 5.8 -log M |
| H[Aib]EGTFTSDVSTLK([AEEA-AEEA-γGlu-C20 diacid])EFAAEQRFLEHLV-NH2 [SEQ ID NO: 89] | 5.7 -log M |
| H[Aib]EGTFTSDVSRLK([AEEA-AEEA-γGlu-C20 diacid])ETAA[Aib]QRFLEHLV-NH2 [SEQ ID NO: 85] | 5.8 -log M |
| H[Aib]EGTFTSDVSYLK([AEEA-AEEA-γGlu-C20 diacid])EFAAQQRFLEHLV-NH2 [SEQ ID NO: 76] | 5 -log M |
| H[Aib]EGTFTSDVSFLK([AEEA-AEEA-γGlu-C20 diacid])EFAASQRFLEHLV-NH2 [SEQ ID NO: 91] | 4.5 -log M |
| H[Aib]EGTFTSDVSRLK([AEEA-AEEA-γGlu-C20 diacid])EEAAQQRFLEHLV-NH2 [SEQ ID NO: 73] | 7.1 -log M |
| H[Aib]EGTFTSDVSRLK([AEEA-AEEA-γGlu-C20 diacid])ELAAAQRFLEHLV-NH2 [SEQ ID NO: 9] | 6 -log M |
| H[Aib]EGTFTSDVSFLK([AEEA-AEEA-γGlu-C20 diacid])EEAAAQRFLEHLV-NH2 [SEQ ID NO: 63] | 5 -log M |
| H[Aib]EGTFTSDVSRLK([AEEA-AEEA-γGlu-C20 diacid])E[Aib]AA[Aib]QRFLEHLV-NH2 [SEQ ID NO: 64] | 6.5 -log M |
| H[Aib]EGTFTSDVSELK([AEEA-AEEA-γGlu-C20 diacid])E[Aib]AATQRFLEHLV-NH2 [SEQ ID NO: 82] | 7 -log M |
| H[Aib]EGTFTSDVSYLKEEAAEQRFLEHLV-NH2 (not fully specified (residue 14)) [SEQ ID NO: 95] | 4.8 -log M |
| H[Aib]EGTFTSDVSELK([AEEA-AEEA-γGlu-C20 diacid])E[Aib]AA[Aib]QRFLEHLV-NH2 [SEQ ID NO: 7] | 6 -log M |
| H[Aib]EGTFTSDVSELK([AEEA-AEEA-γGlu-C20 diacid])EEAASQRFLEHLV-NH2 [SEQ ID NO: 87] | 5.8 -log M |

— patent US20260201008A1, “SECRETIN-DERIVED GLP1R SELECTIVE AGONISTS” (GUBRA A/S, priority 2023, published 2026)
